Assay [1] addresses [Asn516]β-RNAP (Escherichia coli).
Assay [2] addresses Escherichia coli RNA polymerase (Escherichia coli) (UniProt P0A8T7).
The target in assay [3] is [Asn516]β-RNAP (Escherichia coli). This is another data set of the same source.

Where two headings read alike, the source gives them in different places.

This note sets out measurements from patent publication US20090137467A1.

In the case of “{rifamycin SV}-{CH2C(O)NH(CH2)10NHC(O)CH2S(CH2)3C(NH2+)}-{[Lys5]MccJ25} (from UniProt Q9X2V7) (peptide)”, the inhibition of transcription (IC50) in assay [1] worked out at 95 µM. “{rifamycin SV}-{CH2C(O)NH(CH2)12NHC(O)CH2S(CH2)3C(NH2+)}-{[Lys5]microcin J25} (from UniProt Q9X2V7) (peptide)” displayed an inhibition of transcription (IC50) in assay [1] of 48 µM. In addition, the inhibition of RNAP (IC50) in assay [2] was determined as 0.002 µM. Consider “{rifamycin SV}-{CH2C(O)NH(CH2)6NHC(O)CH2S(CH2)3C(NH2+)}-{[Lys5]MccJ25} (from UniProt Q9X2V7) (peptide)”, for which, in assay [1], the inhibition of transcription (IC50) came out at 130 µM. As to “{rifamycin SV}-{CH2C(O)NH(CH2)10NHC(O)(CH2)2(C2N3)(CH2)4C(O)}-{[Lys5]microcin J25} (from UniProt Q9X2V7) (peptide)”, the inhibition of transcription (IC50) in assay [3] was found to be 220 µM. For “{rifamycin SV}-{CH2C(O)NH(CH2)8NHC(O)CH2S(CH2)3C(NH2+)}-{[Lys5]MccJ25} (from UniProt Q9X2V7) (peptide)”, in assay [1], the inhibition of transcription (IC50) stood at 100 µM.
